{"source": "patent US20210015937A1", "about": "(CRESCENDO BIOLOGICS, published 2021)", "binders": {"B1": {"name": "VH1.1-6GS-VH1.1-His6 (VHH)", "chain": "EVQLVESGGGVVRPGGSLRLSCSASGFTFDDYGMSWVRQAPGKGLEWVSGIHWNGGNSGYADSVKGRFTISRDNAKNSLYLQMNSLRAEDTALYYCARIPREDCSSASCYTDAIDFWGPGTMVTVSSGGGGSGGGGSGGGGSGGGGSGGGGSGGGGSEVQLVESGGGVVRPGGSLRLSCSASGFTFDDYGMSWVRQAPGKGLEWVSGIHWNGGNSGYADSVKGRFTISRDNAKNSLYLQMNSLRAEDTALYYCARIPREDCSSASCYTDAIDFWGPGTMVTVSSAAAHHHHHH", "notes": "Tandem fusion of two VH 1.1, bivalent for LAG-3; The entry includes the C-terminal AAA-His6; also called 1.1-6GS-1.1; bivalent 1.1-6GS-1.1"}}, "key": {"mouse LAG-3": {"molecular_target": "T1, mouse LAG-3 (mouse, UniProt Q61790 24-442)", "T1 construct": "The construct is not described; also called mouse LAG-3 (Sino Biological cat no 53069-M02H); Mouse LAG3 (R&D Biotechne cat 3328-L3)", "T1 sequence (looked up)": "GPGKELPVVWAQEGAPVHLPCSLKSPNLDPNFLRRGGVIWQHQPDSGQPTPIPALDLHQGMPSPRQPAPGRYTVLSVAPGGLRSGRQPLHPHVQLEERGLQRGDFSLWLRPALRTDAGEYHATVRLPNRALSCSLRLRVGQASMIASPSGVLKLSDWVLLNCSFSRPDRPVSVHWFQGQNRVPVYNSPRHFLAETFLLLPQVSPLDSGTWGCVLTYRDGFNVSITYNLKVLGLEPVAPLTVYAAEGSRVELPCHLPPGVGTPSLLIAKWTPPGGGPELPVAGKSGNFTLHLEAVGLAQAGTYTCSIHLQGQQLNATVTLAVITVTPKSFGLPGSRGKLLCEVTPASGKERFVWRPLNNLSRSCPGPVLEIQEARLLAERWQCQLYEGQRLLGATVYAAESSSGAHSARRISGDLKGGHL", "experiment": "ELISA, coated antigen, anti-HIS HRP detection", "method": "(§1) To screen specificity by ELISA, antigens were coated at 1-5 ug/ml and blocked with Marvel milk powder. VH were added at 10 μg/ml and incubated for 1 hour. After washing, HRP-conjugated anti-HIS antibody (Miltenyi cat no. 130-092-785) was added. TMB substrate and acidic solution were used to develop colorimetric signal."}, "CD4": {"molecular_target": "T2, CD4 (UniProt P01730 26-390)", "T2 construct": "also called CD4 (R&D Biotechne 514-CD)", "experiment": "ELISA, coated antigen, anti-HIS HRP detection", "method": "as §1"}, "[1]": {"molecular_target": "T3, recombinant human LAG-3-Fc (human, UniProt P18627 23-450)", "T3 construct": "also called human LAG-3 (R&D Systems cat no. 2319-L3); LAG3 antigen", "T3 sequence": "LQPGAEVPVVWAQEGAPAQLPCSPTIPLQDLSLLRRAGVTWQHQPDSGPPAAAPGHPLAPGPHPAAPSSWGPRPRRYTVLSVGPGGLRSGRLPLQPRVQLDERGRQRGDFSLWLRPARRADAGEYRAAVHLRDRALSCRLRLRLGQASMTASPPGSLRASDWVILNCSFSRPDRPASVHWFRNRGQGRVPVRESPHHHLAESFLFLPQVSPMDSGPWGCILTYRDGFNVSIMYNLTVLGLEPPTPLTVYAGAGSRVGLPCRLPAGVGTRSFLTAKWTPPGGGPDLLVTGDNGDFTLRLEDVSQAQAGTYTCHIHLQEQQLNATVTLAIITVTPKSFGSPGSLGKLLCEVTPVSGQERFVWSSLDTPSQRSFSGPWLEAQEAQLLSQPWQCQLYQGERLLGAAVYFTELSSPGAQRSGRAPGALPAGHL", "experiment": "ELISA, coated antigen, VH at 10 µg/ml, anti-HIS HRP", "method": "as §1"}, "[2]": {"molecular_target": "T4, human LAG-3 domains 1-2-Fc (human, UniProt P18627 23-261, limits assumed)", "T4 construct": "Domains were identified as per Huard et al 1997 PNAS 94:5744-9; also called truncated LAG-3", "T4 sequence": "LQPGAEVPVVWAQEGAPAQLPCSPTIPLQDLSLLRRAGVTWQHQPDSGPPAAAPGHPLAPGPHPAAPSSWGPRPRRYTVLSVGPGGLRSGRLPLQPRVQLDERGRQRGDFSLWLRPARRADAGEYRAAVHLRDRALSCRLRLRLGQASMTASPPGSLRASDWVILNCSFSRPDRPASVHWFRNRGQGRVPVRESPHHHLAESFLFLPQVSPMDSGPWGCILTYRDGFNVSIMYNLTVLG", "experiment": "ELISA, coated antigen, VH at 10 µg/ml, anti-HIS HRP", "method": "as §1"}, "[3]": {"molecular_target": "T5, Rhesus monkey LAG-3 (used as cynomolgus LAG-3) (Rhesus monkey (called cynomolgus in the …))", "T5 construct": "extracellular domain", "experiment": "ELISA, coated antigen, VH at 10 µg/ml, anti-HIS HRP", "method": "as §1"}}}
{"binder": "B1", "values": [{"measurement": "binding result", "setting": "mouse LAG-3", "value": "no binding (tested: 10 µg/ml VH)"}, {"measurement": "binding result", "setting": "CD4", "value": "no binding (tested: 10 µg/ml VH)"}, {"measurement": "ELISA signal over background", "setting": "[1]", "value": "> 10", "unit": "fold over background"}, {"measurement": "ELISA signal over background", "setting": "[2]", "value": "> 10", "unit": "fold over background"}, {"measurement": "ELISA signal over background", "setting": "[3]", "value": "> 10", "unit": "fold over background"}]}
